These results are taken from US20200155602A1 (IMMATICS BIOTECHNOLOGIES, published 2020).

Where no end group is shown, it is not given here. [ ]: non-standard residue; d: D form. pS = N[C@@H](COP(=O)(O)O)C(=O)O

For this experiment, the target named is T1, HLA-A*02:01 (human).
T1 construct: Peptide-receptive HLA-A*02:01 monomer obtained by UV cleavage of a UV-sensitive ligand; captured on streptavidin plates; also called peptide-receptive MHC molecules; MHC class I
Description: UV-ligand exchange, anti-b2m ELISA; grade of peptide exchange yield (>10% = +; >20% = ++; >50 = +++; >75% = ++++). The text has this:
Candidate peptides for T cell based therapies according to the present invention were further tested for their MHC binding capacity (affinity). The individual peptide-MHC complexes were produced by UV-ligand exchange, where a UV-sensitive peptide is cleaved upon UV-irradiation, and exchanged with the peptide of interest as analyzed. Only peptide candidates that can effectively bind and stabilize the peptide-receptive MHC molecules prevent dissociation of the MHC complexes. To determine the yield of the exchange reaction, an ELISA was performed based on the detection of the light chain (β2m) of stabilized MHC complexes. The assay was performed as generally described in Rodenko et al. (Rodenko et al., 2006).
96 well MAXISorp plates (NUNC) were coated over night with 2 ug/ml streptavidin in PBS at room temperature, washed 4× and blocked for 1 h at 37° C. in 2% BSA containing blocking buffer. Refolded HLA-A*02:01/MLA-001 monomers served as standards, covering the range of 15-500 ng/ml. Peptide-MHC monomers of the UV-exchange reaction were diluted 100-fold in blocking buffer. Samples were incubated for 1 h at 37° C., washed four times, incubated with 2 ug/ml HRP conjugated anti-β2m for 1 h at 37° C., washed again and detected with TMB solution that is stopped with […]. Absorption was measured at 450 nm. Candidate peptides that show a high exchange yield (preferably higher than 50%, most preferred higher than 75%) are generally preferred for a generation and production of antibodies or fragments thereof, and/or T cell receptors or fragments thereof, as they show sufficient avidity to the MHC molecules and prevent dissociation of the MHC complexes.
As to LMAPAPSTV, the peptide exchange yield lay within 50 to 75%.

For YIDPYKLLPL, the peptide exchange yield lay within 50 to 75%.

The molecule FLFPAFLTA gave a peptide exchange yield above 75%.

Regarding AQLNLIWQL, the peptide exchange yield is above 75%.

For SLFPYVVLI, the peptide exchange yield is above 75%.

VLYGDVEEL showed a peptide exchange yield of 50 to 75%.

For QLIEKITQV, the peptide exchange yield fell in the range of 50 to 75%.

Consider GLHQDFPSVVL, for which the peptide exchange yield lay in the range of 50 to 75%.

VLDEGLTSV returned a peptide exchange yield above 75%.

In turn, ALMAGCIQEA came in with a peptide exchange yield above 75%.

On to AQLNIGNVLPV, for which the peptide exchange yield was above 75%.

In the case of ALEEANADLEV, the peptide exchange yield was 50 to 75%.

SLRAFLMPI displayed a peptide exchange yield of 20 to 50%.

In turn, ALASAPTSV came in with a peptide exchange yield above 75%.

For YVMESMTYL, the peptide exchange yield is above 75%.

ALMDEINFMKM yielded a peptide exchange yield above 75%.

Consider KILE[pS]LFV[pS]L [KILEJLFVJL], for which the peptide exchange yield lay in the range of 50 to 75%.

Consider TLLSEIAEL, for which the peptide exchange yield is above 75%.

Take ALWGFFPVLL: the peptide exchange yield is above 75%.

VLAENPDIFAV yielded a peptide exchange yield of 50 to 75%.

SLQERQVFL: the peptide exchange yield was in the range of 50 to 75%.

In the case of ALPEPSPAA, the peptide exchange yield lay in the range of 50 to 75%.

For GLYGIKDDVFL, the peptide exchange yield was above 75%.

As for QLLQYVYNL, the peptide exchange yield was above 75%.

Molecule SLDGNPLAV came in with a peptide exchange yield above 75%.

The molecule ILFDEVLTFA displayed a peptide exchange yield above 75%.

Molecule KILEMDDPRA returned a peptide exchange yield of 20 to 50%.
